The target in the experiment is unmodified H3 peptide (UniProt P59226). Put plainly: ITC; FIG. 3A. (ITC needs no label: the signal is the heat of the interaction.)

pKd: −log10 of the molar value.

For orientation: pKd means the negative decadic logarithm of the Kd, by convention in mol/L.

SHH1 SAWADEE domain (residues 125-258), sequence (Q9XI47 125-258): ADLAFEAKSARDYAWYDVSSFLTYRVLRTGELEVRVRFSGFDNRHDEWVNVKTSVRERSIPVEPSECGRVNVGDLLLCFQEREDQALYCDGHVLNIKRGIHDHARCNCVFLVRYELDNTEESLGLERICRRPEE

The substance “SHH1 SAWADEE domain (residues 125-258) (from UniProt Q9XI47 125-258)” gave a pKd of 4.46.

The values are drawn from patent US20160017348A1.
